Source: patent US7696168 (TUFTS MEDICAL CENTER, dated 2010)
The star is where a group is joined. Palmitoyl = CCCCCCCCCCCCCCCC(=O)*

Tests used:
murine PAR4 = target: T1, murine PAR4 (mouse, UniProt O88634 60-396); experiment: cell-based or functional assay
T1 sequence (looked up): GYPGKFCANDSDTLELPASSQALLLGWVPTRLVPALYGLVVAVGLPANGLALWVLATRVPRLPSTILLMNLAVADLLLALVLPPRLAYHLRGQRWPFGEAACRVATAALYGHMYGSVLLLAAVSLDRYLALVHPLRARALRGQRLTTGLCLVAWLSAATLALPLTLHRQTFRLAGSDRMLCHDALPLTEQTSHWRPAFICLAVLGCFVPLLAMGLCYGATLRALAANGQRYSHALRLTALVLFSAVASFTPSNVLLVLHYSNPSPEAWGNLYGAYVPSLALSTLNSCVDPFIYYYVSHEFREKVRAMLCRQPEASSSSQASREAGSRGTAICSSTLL

PAR1 S309P mutant = target: T2, PAR1 S309P mutant (human, UniProt P25116 42-425); experiment: cell-based or functional assay
T2 sequence (looked up): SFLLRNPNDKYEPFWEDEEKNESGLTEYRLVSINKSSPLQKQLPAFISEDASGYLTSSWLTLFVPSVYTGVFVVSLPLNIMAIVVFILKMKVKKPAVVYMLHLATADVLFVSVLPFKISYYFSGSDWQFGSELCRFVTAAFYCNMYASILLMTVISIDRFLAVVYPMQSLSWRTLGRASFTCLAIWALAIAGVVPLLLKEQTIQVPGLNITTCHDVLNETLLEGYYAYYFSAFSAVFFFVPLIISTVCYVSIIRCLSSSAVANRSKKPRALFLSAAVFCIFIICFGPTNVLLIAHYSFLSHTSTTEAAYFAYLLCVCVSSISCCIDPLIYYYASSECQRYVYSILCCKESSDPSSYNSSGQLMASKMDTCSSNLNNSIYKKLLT

PAR1 delta377 mutant = PAR1 delta377 mutant (UniProt P25116)
human PAR4 [1] = target: T3, human PAR4 (human, UniProt Q96RI0 48-385); experiment: cell-based or functional assay
T3 sequence (looked up): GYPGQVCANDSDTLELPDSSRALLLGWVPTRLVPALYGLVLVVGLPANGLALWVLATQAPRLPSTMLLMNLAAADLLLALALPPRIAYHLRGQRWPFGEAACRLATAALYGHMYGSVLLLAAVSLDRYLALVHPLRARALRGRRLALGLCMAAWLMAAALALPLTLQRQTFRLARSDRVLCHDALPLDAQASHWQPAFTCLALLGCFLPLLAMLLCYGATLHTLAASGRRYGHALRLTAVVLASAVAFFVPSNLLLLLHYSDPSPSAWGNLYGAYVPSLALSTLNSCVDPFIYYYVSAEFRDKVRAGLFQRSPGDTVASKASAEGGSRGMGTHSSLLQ

human PAR4 [2] = target: T3, human PAR4; experiment: cell-based or functional assay; remark: listed apart in the source
human PAR1 [3] = target: T4, human PAR1 (human, UniProt P25116 42-425); experiment: cell-based or functional assay
T4 sequence (looked up): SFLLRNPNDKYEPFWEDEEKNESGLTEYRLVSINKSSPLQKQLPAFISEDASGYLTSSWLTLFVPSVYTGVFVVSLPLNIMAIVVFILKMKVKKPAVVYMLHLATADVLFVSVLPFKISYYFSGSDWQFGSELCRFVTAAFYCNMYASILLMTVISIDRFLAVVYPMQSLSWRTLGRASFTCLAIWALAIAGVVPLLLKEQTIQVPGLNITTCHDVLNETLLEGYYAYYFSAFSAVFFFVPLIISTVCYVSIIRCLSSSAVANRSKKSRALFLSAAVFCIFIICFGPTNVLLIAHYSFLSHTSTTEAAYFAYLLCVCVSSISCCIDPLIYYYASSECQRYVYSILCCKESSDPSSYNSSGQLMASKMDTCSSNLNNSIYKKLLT

human PAR1 [4] = target: T4, human PAR1; experiment: cell-based or functional assay; remark: listed apart in the source
MC4 receptor (MC4R) = MC4 receptor (MC4R) (human, UniProt P32245 1-332); experiment: cell-based or functional assay
Sequence of MC4 receptor (MC4R) (P32245 whole entry): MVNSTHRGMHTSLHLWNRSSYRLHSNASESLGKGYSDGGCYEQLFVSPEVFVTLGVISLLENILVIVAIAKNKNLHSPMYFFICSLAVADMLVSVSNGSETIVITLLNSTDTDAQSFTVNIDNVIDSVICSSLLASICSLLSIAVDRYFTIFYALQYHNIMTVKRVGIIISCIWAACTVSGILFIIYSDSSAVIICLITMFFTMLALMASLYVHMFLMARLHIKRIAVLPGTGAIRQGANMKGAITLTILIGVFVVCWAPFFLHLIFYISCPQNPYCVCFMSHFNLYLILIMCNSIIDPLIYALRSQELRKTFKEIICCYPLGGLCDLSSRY

[5] = target: rat somatostatin receptor (SSTR2) (rat, UniProt P30680 1-369); experiment: cell-based or functional assay
Sequence of rat somatostatin receptor (SSTR2) (P30680 whole entry): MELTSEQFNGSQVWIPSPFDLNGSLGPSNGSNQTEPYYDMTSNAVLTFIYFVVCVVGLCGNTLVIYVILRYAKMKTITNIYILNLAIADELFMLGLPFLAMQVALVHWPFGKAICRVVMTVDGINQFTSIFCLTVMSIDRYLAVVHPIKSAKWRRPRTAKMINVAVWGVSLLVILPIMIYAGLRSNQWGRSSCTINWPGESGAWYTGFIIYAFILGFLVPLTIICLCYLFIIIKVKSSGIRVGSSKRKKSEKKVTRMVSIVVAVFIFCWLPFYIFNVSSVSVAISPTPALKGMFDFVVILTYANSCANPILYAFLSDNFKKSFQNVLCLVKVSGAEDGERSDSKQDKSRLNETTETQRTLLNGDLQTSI

[6] = target: T5, human cholecystokinin A receptor (CCKA) (human, UniProt P32238 1-428); experiment: cell-based or functional assay
T5 sequence (looked up): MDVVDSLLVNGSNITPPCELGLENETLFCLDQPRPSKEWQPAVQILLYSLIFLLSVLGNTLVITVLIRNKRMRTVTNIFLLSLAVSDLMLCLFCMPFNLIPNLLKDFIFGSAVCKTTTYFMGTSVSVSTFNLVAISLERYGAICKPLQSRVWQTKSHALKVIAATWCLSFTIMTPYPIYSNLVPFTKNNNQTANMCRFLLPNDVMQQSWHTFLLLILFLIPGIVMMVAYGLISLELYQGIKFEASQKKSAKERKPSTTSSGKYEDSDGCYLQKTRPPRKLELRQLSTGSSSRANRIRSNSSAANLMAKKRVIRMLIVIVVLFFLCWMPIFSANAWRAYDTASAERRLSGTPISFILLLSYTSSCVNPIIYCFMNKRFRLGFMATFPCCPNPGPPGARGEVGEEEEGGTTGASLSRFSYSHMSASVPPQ

thrombin (enzyme)
EC50, aggregation of murine platelets by thrombin (murine PAR4): 0.6 nM
loss of potency against wild type PAR1 (InsP) (PAR1 S309P mutant): 17 fold

thrombin
reduction of efficacy against wild type PAR1 (PLC-beta, InsP) (PAR1 delta377 mutant): Efficacy is reduced by 2-3 fold for the two PAR1 agonists

B1: P4pal-15 (Pal-HTLAASGRRYGHALR) (peptide)
peptide: Palmitoyl-HTLAASGRRYGHALR-NH2
SMILES: CCCCCCCCCCCCCCCC(=O)N[C@@H](Cc1c[nH]cn1)C(=O)N[C@H](C(=O)N[C@@H](CC(C)C)C(=O)N[C@@H](C)C(=O)N[C@@H](C)C(=O)N[C@@H](CO)C(=O)NCC(=O)N[C@@H](CCCNC(=N)N)C(=O)N[C@@H](CCCNC(=N)N)C(=O)N[C@@H](Cc1ccc(O)cc1)C(=O)NCC(=O)N[C@@H](Cc1c[nH]cn1)C(=O)N[C@@H](C)C(=O)N[C@@H](CC(C)C)C(=O)N[C@@H](CCCNC(=N)N)C(N)=O)[C@@H](C)O
IC50, inhibition of platelet aggregation to 200 micromolar AYPGKF (human PAR4 [1]): 600 nM
Antagonist IC50 (InsP formation, against 10 nM thrombin) (human PAR4 [2]): 3000 nM

B2: P1pal-19Q (Pal-RCLSSSAVANQSQQSQALF) (peptide)
peptide: Palmitoyl-RCLSSSAVANQSQQSQALF-NH2
SMILES: CCCCCCCCCCCCCCCC(=O)N[C@@H](CCCNC(=N)N)C(=O)N[C@@H](CS)C(=O)N[C@@H](CC(C)C)C(=O)N[C@@H](CO)C(=O)N[C@@H](CO)C(=O)N[C@@H](CO)C(=O)N[C@@H](C)C(=O)N[C@H](C(=O)N[C@@H](C)C(=O)N[C@@H](CC(N)=O)C(=O)N[C@@H](CCC(N)=O)C(=O)N[C@@H](CO)C(=O)N[C@@H](CCC(N)=O)C(=O)N[C@@H](CCC(N)=O)C(=O)N[C@@H](CO)C(=O)N[C@@H](CCC(N)=O)C(=O)N[C@@H](C)C(=O)N[C@@H](CC(C)C)C(=O)N[C@@H](Cc1ccccc1)C(N)=O)C(C)C
loss in efficacy, platelet aggregation or InsP in PAR1-Rat1 cells (human PAR1 [3]): 2 fold
Agonist EC50 (activating phase, InsP formation) (human PAR1 [4]): 650 nM
Agonist Efficacy (% of full response to extracellular agonist) (human PAR1 [4]): 46%
Agonist IC50 (inhibitory phase, InsP formation) (human PAR1 [4]): 30000 nM

B3: MC4pal-14 (Pal-TGAIRQGANMKGAI) (peptide)
peptide: Palmitoyl-TGAIRQGANMKGAI-NH2
SMILES: CCCCCCCCCCCCCCCC(=O)N[C@H](C(=O)NCC(=O)N[C@@H](C)C(=O)N[C@H](C(=O)N[C@@H](CCCNC(=N)N)C(=O)N[C@@H](CCC(N)=O)C(=O)NCC(=O)N[C@@H](C)C(=O)N[C@@H](CC(N)=O)C(=O)N[C@@H](CCSC)C(=O)N[C@@H](CCCCN)C(=O)NCC(=O)N[C@@H](C)C(=O)N[C@H](C(N)=O)[C@@H](C)CC)[C@@H](C)CC)[C@@H](C)O
EC50, activating phase (adenylate cyclase) (MC4 receptor (MC4R)): ~150 nM
IC50, inhibitory phase (adenylate cyclase) (MC4 receptor (MC4R)): ~10000 nM
adenylate cyclase activity relative to alpha-MSH (MC4 receptor (MC4R)): 40%

B4: P1pal-19 (Pal-RCLSSSAVANRSKKSRALF) (peptide)
peptide: Palmitoyl-RCLSSSAVANRSKKSRALF-NH2
SMILES: CCCCCCCCCCCCCCCC(=O)N[C@@H](CCCNC(=N)N)C(=O)N[C@@H](CS)C(=O)N[C@@H](CC(C)C)C(=O)N[C@@H](CO)C(=O)N[C@@H](CO)C(=O)N[C@@H](CO)C(=O)N[C@@H](C)C(=O)N[C@H](C(=O)N[C@@H](C)C(=O)N[C@@H](CC(N)=O)C(=O)N[C@@H](CCCNC(=N)N)C(=O)N[C@@H](CO)C(=O)N[C@@H](CCCCN)C(=O)N[C@@H](CCCCN)C(=O)N[C@@H](CO)C(=O)N[C@@H](CCCNC(=N)N)C(=O)N[C@@H](C)C(=O)N[C@@H](CC(C)C)C(=O)N[C@@H](Cc1ccccc1)C(N)=O)C(C)C
platelet aggregation EC50 (human PAR1 [3]): 8000 nM
loss in efficacy against wild type PAR1 (InsP) (PAR1 S309P mutant): 4.3 fold
loss in potency against wild type PAR1 (InsP) (PAR1 S309P mutant): 13 fold
Agonist EC50 (activating phase, InsP formation) (human PAR1 [4]): 180 nM
Agonist Efficacy (% of full response to extracellular agonist) (human PAR1 [4]): 90%
Agonist IC50 (inhibitory phase, InsP formation) (human PAR1 [4]): 6500 nM

B5: S2pal-23F (Pal-KVRSSGIRVGSSKRKKSEKKVTF) (peptide)
peptide: Palmitoyl-KVRSSGIRVGSSKRKKSEKKVTF-NH2
SMILES: CCCCCCCCCCCCCCCC(=O)N[C@@H](CCCCN)C(=O)N[C@H](C(=O)N[C@@H](CCCNC(=N)N)C(=O)N[C@@H](CO)C(=O)N[C@@H](CO)C(=O)NCC(=O)N[C@H](C(=O)N[C@@H](CCCNC(=N)N)C(=O)N[C@H](C(=O)NCC(=O)N[C@@H](CO)C(=O)N[C@@H](CO)C(=O)N[C@@H](CCCCN)C(=O)N[C@@H](CCCNC(=N)N)C(=O)N[C@@H](CCCCN)C(=O)N[C@@H](CCCCN)C(=O)N[C@@H](CO)C(=O)N[C@@H](CCC(=O)O)C(=O)N[C@@H](CCCCN)C(=O)N[C@@H](CCCCN)C(=O)N[C@H](C(=O)N[C@H](C(=O)N[C@@H](Cc1ccccc1)C(N)=O)[C@@H](C)O)C(C)C)C(C)C)[C@@H](C)CC)C(C)C
Agonist EC50 (activating phase, InsP formation) [5]: 100 nM
Agonist Efficacy (% of full response to extracellular agonist) [5]: 15%
Agonist IC50 (inhibitory phase, InsP formation) [5]: 500 nM
Antagonist IC50 (InsP formation, against 1 µM …) [5]: 3000 nM

B6: P4pal-10 (Pal-SGRRYGHALR) (peptide)
peptide: Palmitoyl-SGRRYGHALR-NH2
SMILES: CCCCCCCCCCCCCCCC(=O)N[C@@H](CO)C(=O)NCC(=O)N[C@@H](CCCNC(=N)N)C(=O)N[C@@H](CCCNC(=N)N)C(=O)N[C@@H](Cc1ccc(O)cc1)C(=O)NCC(=O)N[C@@H](Cc1c[nH]cn1)C(=O)N[C@@H](C)C(=O)N[C@@H](CC(C)C)C(=O)N[C@@H](CCCNC(=N)N)C(N)=O
IC50, inhibition of platelet aggregation to AYPGKF (human PAR4 [1]): 500 to 1000 nM
inhibition of the rate of murine platelet aggregation to 3 nM thrombin, 3 µM pepducin (murine PAR4): 7 fold

B7: P4pal-15F (Pal-HTLAASGRRYGHALF) (peptide)
peptide: Palmitoyl-HTLAASGRRYGHALF-NH2
SMILES: CCCCCCCCCCCCCCCC(=O)N[C@@H](Cc1c[nH]cn1)C(=O)N[C@H](C(=O)N[C@@H](CC(C)C)C(=O)N[C@@H](C)C(=O)N[C@@H](C)C(=O)N[C@@H](CO)C(=O)NCC(=O)N[C@@H](CCCNC(=N)N)C(=O)N[C@@H](CCCNC(=N)N)C(=O)N[C@@H](Cc1ccc(O)cc1)C(=O)NCC(=O)N[C@@H](Cc1c[nH]cn1)C(=O)N[C@@H](C)C(=O)N[C@@H](CC(C)C)C(=O)N[C@@H](Cc1ccccc1)C(N)=O)[C@@H](C)O
Antagonist IC50 (InsP formation, against 10 nM thrombin) (human PAR4 [2]): > 2000 nM

B8: Apal-19F (Pal-RIRSNSSAANLMAKKRVIEF) (peptide)
peptide: Palmitoyl-RIRSNSSAANLMAKKRVIEF-NH2
SMILES: CCCCCCCCCCCCCCCC(=O)N[C@@H](CCCNC(=N)N)C(=O)N[C@H](C(=O)N[C@@H](CCCNC(=N)N)C(=O)N[C@@H](CO)C(=O)N[C@@H](CC(N)=O)C(=O)N[C@@H](CO)C(=O)N[C@@H](CO)C(=O)N[C@@H](C)C(=O)N[C@@H](C)C(=O)N[C@@H](CC(N)=O)C(=O)N[C@@H](CC(C)C)C(=O)N[C@@H](CCSC)C(=O)N[C@@H](C)C(=O)N[C@@H](CCCCN)C(=O)N[C@@H](CCCCN)C(=O)N[C@@H](CCCNC(=N)N)C(=O)N[C@H](C(=O)N[C@H](C(=O)N[C@@H](CCC(=O)O)C(=O)N[C@@H](Cc1ccccc1)C(N)=O)[C@@H](C)CC)C(C)C)[C@@H](C)CC
Agonist EC50 (activating phase, InsP formation) [6]: 200 nM
Agonist Efficacy (% of full response to 300 nM CCK-8) [6]: < 10%
Agonist IC50 (inhibitory phase, InsP formation) [6]: 2000 nM
